Results published in patent publication US20220074941A1, “HSP90 COMBINATION THERAPY” (Sloan-Kettering Institute for Cancer Research, priority 2011, published 2022).

B1: CPNE3 (protein, UniProt O75131 1-537, looked up)
Copine-3: MAAQCVTKVALNVSCANLLDKDIGSKSDPLCVLFLNTSGQQWYEVERTERIKNCLNPQFSKTFIIDYYFEVVQKLKFGVYDIDNKTIELSDDDFLGECECTLGQIVSSKKLTRPLVMKTGRPAGKGSITISAEEIKDNRVVLFEMEARKLDNKDLFGKSDPYLEFHKQTSDGNWLMVHRTEVVKNNLNPVWRPFKISLNSLCYGDMDKTIKVECYDYDNDGSHDLIGTFQTTMTKLKEASRSSPVEFECINEKKRQKKKSYKNSGVISVKQCEITVECTFLDYIMGGCQLNFTVGVDFTGSNGDPRSPDSLHYISPNGVNEYLTALWSVGLVIQDYDADKMFPAFGFGAQIPPQWQVSHEFPMNFNPSNPYCNGIQGIVEAYRSCLPQIKLYGPTNFSPIINHVARFAAAATQQQTASQYFVLLIITDGVITDLDETRQAIVNASRLPMSIIIVGVGGADFSAMEFLDGDGGSLRSPLGEVAIRDIVQFVPFRQFQNAPKEALAQCVLAEIPQQVVGYFNTYKLLPPKNPATKQQKQ
B2: FAM115A (protein, UniProt Q9Y4C2 1-921, looked up)
TRPM8 channel-associated …: MATPSAAFEALMNGVTSWDVPEDAVPCELLLIGEASFPVMVNDMGQVLIAASSYGRGRLVVVSHEDYLVEAQLTPFLLNAVGWLCSSPGAPIGVHPSLAPLAKILEGSGVDAKVEPEVKDSLGVYCIDAYNETMTEKLVKFMKCGGGLLIGGQAWDWANQGEDERVLFTFPGNLVTSVAGIYFTDNKGDTSFFKVSKKMPKIPVLVSCEDDLSDDREELLHGISELDISNSDCFPSQLLVHGALAFPLGLDSYHGCVIAAARYGRGRVVVTGHKVLFTVGKLGPFLLNAVRWLDGGRRGKVVVQTELRTLSGLLAVGGIDTSIEPNLTSDASVYCFEPVSEVGVKELQEFVAEGGGLFVGAQAWWWAFKNPGVSPLARFPGNLLLNPFGISITSQSLNPGPFRTPKAGIRTYHFRSTLAEFQVIMGRKRGNVEKGWLAKLGPDGAAFLQIPAEEIPAYMSVHRLLRKLLSRYRLPVATRENPVINDCCRGAMLSLATGLAHSGSDLSLLVPEIEDMYSSPYLRPSESPITVEVNCTNPGTRYCWMSTGLYIPGRQIIEVSLPEAAASADLKIQIGCHTDDLTRASKLFRGPLVINRCCLDKPTKSITCLWGGLLYIIVPQNSKLGSVPVTVKGAVHAPYYKLGETTLEEWKRRIQENPGPWGELATDNIILTVPTANLRTLENPEPLLRLWDEVMQAVARLGAEPFPLRLPQRIVADVQISVGWMHAGYPIMCHLESVQELINEKLIRTKGLWGPVHELGRNQQRQEWEFPPHTTEATCNLWCVYVHETVLGIPRSRANIALWPPVREKRVRIYLSKGPNVKNWNAWTALETYLQLQEAFGWEPFIRLFTEYRNQTNLPTENVDKMNLWVKMFSHQVQKNLAPFFEAWAWPIQKEVATSLAYLPEWKENIMKLYLLTQMPH
B3: APRT (protein, UniProt P07741 2-180, looked up)
Adenine …: ADSELQLVEQRIRSFPDFPTPGVVFRDISPVLKDPASFRAAIGLLARHLKATHGGRIDYIAGLDSRGFLFGPSLAQELGLGCVLIRKRGKLPGPTLWASYSLEYGKAELEIQKDALEPGQRVVVVDDLLATGGTMNAACELLGRLQAEVLECVSLVELTSLKGREKLAPVPFFSLLQYE
B4: SUPV3L1 (protein, UniProt Q8IYB8 23-786, looked up)
ATP-dependent RNA helicase …: AICSALRPHFGPFPGVLGQVSVLATASSSASGGSKIPNTSLFVPLTVKPQGPSADGDVGAELTRPLDKNEVKKVLDKFYKRKEIQKLGADYGLDARLFHQAFISFRNYIMQSHSLDVDIHIVLNDICFGAAHADDLFPFFLRHAKQIFPVLDCKDDLRKISDLRIPPNWYPDARAMQRKIIFHSGPTNSGKTYHAIQKYFSAKSGVYCGPLKLLAHEIFEKSNAAGVPCDLVTGEERVTVQPNGKQASHVSCTVEMCSVTTPYEVAVIDEIQMIRDPARGWAWTRALLGLCAEEVHLCGEPAAIDLVMELMYTTGEEVEVRDYKRLTPISVLDHALESLDNLRPGDCIVCFSKNDIYSVSRQIEIRGLESAVIYGSLPPGTKLAQAKKFNDPNDPCKILVATDAIGMGLNLSIRRIIFYSLIKPSINEKGERELEPITTSQALQIAGRAGRFSSRFKEGEVTTMNHEDLSLLKEILKRPVDPIRAAGLHPTAEQIEMFAYHLPDATLSNLIDIFVDFSQVDGQYFVCNMDDFKFSAELIQHIPLSLRVRYVFCTAPINKKQPFVCSSLLQFARQYSRNEPLTFAWLRRYIKWPLLPPKNIKDLMDLEAVHDVLDLYLWLSYRFMDMFPDASLIRDLQKELDGIIQDGVHNITKLIKMSETHKLLNLEGFPSGSQSRLSGTLKSQARRTRGTKALGSKATEPPSPDAGELSLASRLVQQGLLTPDMLKQLEKEWMTQQTEHNKEKTESGTHPKGTRRKKKEPDSD
B5: FHOD1 (protein, UniProt Q9Y613 2-1164, looked up)
FH1/FH2 domain-containing …: AGGEDRGDGEPVSVVTVRVQYLEDTDPFACANFPEPRRAPTCSLDGALPLGAQIPAVHRLLGAPLKLEDCALQVSPSGYYLDTELSLEEQREMLEGFYEEISKGRKPTLILRTQLSVRVNAILEKLYSSSGPELRRSLFSLKQIFQEDKDLVPEFVHSEGLSCLIRVGAAADHNYQSYILRALGQLMLFVDGMLGVVAHSDTIQWLYTLCASLSRLVVKTALKLLLVFVEYSENNAPLFIRAVNSVASTTGAPPWANLVSILEEKNGADPELLVYTVTLINKTLAALPDQDSFYDVTDALEQQGMEALVQRHLGTAGTDVDLRTQLVLYENALKLEDGDIEEAPGAGGRRERRKPSSEEGKRSRRSLEGGGCPARAPEPGPTGPASPVGPTSSTGPALLTGPASSPVGPPSGLQASVNLFPTISVAPSADTSSERSIYKARFLENVAAAETEKQVALAQGRAETLAGAMPNEAGGHPDARQLWDSPETAPAARTPQSPAPCVLLRAQRSLAPEPKEPLIPASPKAEPIWELPTRAPRLSIGDLDFSDLGEDEDQDMLNVESVEAGKDIPAPSPPLPLLSGVPPPPPLPPPPPIKGPFPPPPPLPLAAPLPHSVPDSSALPTKRKTVKLFWRELKLAGGHGVSASRFGPCATLWASLDPVSVDTARLEHLFESRAKEVLPSKKAGEGRRTMTTVLDPKRSNAINIGLTTLPPVHVIKAALLNFDEFAVSKDGIEKLLTMMPTEEERQKIEEAQLANPDIPLGPAENFLMTLASIGGLAARLQLWAFKLDYDSMEREIAEPLFDLKVGMEQLVQNATFRCILATLLAVGNFLNGSQSSGFELSYLEKVSEVKDTVRRQSLLHHLCSLVLQTRPESSDLYSEIPALTRCAKVDFEQLTENLGQLERRSRAAEESLRSLAKHELAPALRARLTHFLDQCARRVAMLRIVHRRVCNRFHAFLLYLGYTPQAAREVRIMQFCHTLREFALEYRTCRERVLQQQQKQATYRERNKTRGRMITETEKFSGVAGEAPSNPSVPVAVSSGPGRGDADSHASMKSLLTSRPEDTTHNRRSRGMVQSSSPIMPTVGPSTASPEEPPGSSLPSDTSDEIMDLLVQSVTKSSPRALAARERKRSRGNRKSLRRTLKSGLGDDLVQALGLSKGPGLEV
B6: LTV1 (protein, UniProt Q96GA3 1-475, looked up)
Protein LTV1 homolog: MPHRKKKPFIEKKKAVSFHLVHRSQRDPLAADESAPQRVLLPTQKIDNEERRAEQRKYGVFFDDDYDYLQHLKEPSGPSELIPSSTFSAHNRREEKEETLVIPSTGIKLPSSVFASEFEEDVGLLNKAAPVSGPRLDFDPDIVAALDDDFDFDDPDNLLEDDFILQANKATGEEEGMDIQKSENEDDSEWEDVDDEKGDSNDDYDSAGLLSDEDCMSVPGKTHRAIADHLFWSEETKSRFTEYSMTSSVMRRNEQLTLHDERFEKFYEQYDDDEIGALDNAELEGSIQVDSNRLQEVLNDYYKEKAENCVKLNTLEPLEDQDLPMNELDESEEEEMITVVLEEAKEKWDCESICSTYSNLYNHPQLIKYQPKPKQIRISSKTGIPLNVLPKKGLTAKQTERIQMINGSDLPKVSTQPRSKNESKEDKRARKQAIKEERKERRVEKKANKLAFKLEKRRQEKELLNLKKNVEGLKL
B7: FIP1L1 (protein, UniProt Q6UN15 1-594, looked up)
Pre-mRNA 3'-end-processing …: MSAGEVERLVSELSGGTGGDEEEEWLYGGPWDVHVHSDLAKDLDENEVERPEEENASANPPSGIEDETAENGVPKPKVTETEDDSDSDSDDDEDDVHVTIGDIKTGAPQYGSYGTAPVNLNIKTGGRVYGTTGTKVKGVDLDAPGSINGVPLLEVDLDSFEDKPWRKPGADLSDYFNYGFNEDTWKAYCEKQKRIRMGLEVIPVTSTTNKITAEDCTMEVTPGAEIQDGRFNLFKVQQGRTGNSEKETALPSTKAEFTSPPSLFKTGLPPSRNSTSSQSQTSTASRKANSSVGKWQDRYGRAESPDLRRLPGAIDVIGQTITISRVEGRRRANENSNIQVLSERSATEVDNNFSKPPPFFPPGAPPTHLPPPPFLPPPPTVSTAPPLIPPPGFPPPPGAPPPSLIPTIESGHSSGYDSRSARAFPYGNVAFPHLPGSAPSWPSLVDTSKQWDYYARREKDRDRERDRDRERDRDRDRERERTRERERERDHSPTPSVFNSDEERYRYREYAERGYERHRASREKEERHRERRHREKEETRHKSSRSNSRRRHESEEGDSHRRHKHKKSKRSKEGKEAGSEPAPEQESTEATPAE

These molecules were tested on Hsp90 complexes in K562 cell extract (assay: Nano-LC-MS/MS of PU-beads pull-downs). Settings: protein identified in PU-beads pull-down of K562 cell extract, Prep 1; QSTAR-Elite QTof MS.
Assay type: binding
Description: Protein cargo isolated from cell lysate with PU-beads or control-beads was subjected to proteomic analysis by nano liquid chromatography coupled to tandem mass spectrometry (nano LC-MS/MS). Initial protein identification was performed using the Mascot search engine, and was further evaluated using Scaffold Proteome Software (Tables 5a-d).
(§1) Lysates prepared as mentioned above were first pre-cleaned by incubation with control beads overnight at 4° C. […] Beads were washed with lysis buffer, proteins eluted by boiling in 2% SDS, separated on a denaturing gel and Coomassie stained according to manufacturer's procedure (Biorad). […] Analyses of the batch purified pools were done using a QSTAR-Elite hybrid quadrupole time-of-flight mass spectrometer (QTof MS) (AB/MDS Sciex), equipped with a nano spray ion source. Peptide mixtures (in 20 μL) are loaded onto a trapping guard column (0.3×5-mm PepMap C18 100 cartridge from LC Packings) using an Eksigent nano MDLC system (Eksigent Technologies, Inc) at a flow rate of 20 μL/min. […] Electrospray ionization (ESI) needle voltage was set at about 1800 V. The mass analyzer is operated in automatic, data-dependent MS/MS acquisition mode, with the threshold set to 10 counts per second of doubly or triply charged precursor ions selected for fragmentation scans. Survey scans of 0.25 sec are recorded from 400 to 1800 amu; up to 3 MS/MS scans are then collected sequentially for the selected precursor ions, recording from 100 to 1800 amu. The collision energy is automatically adjusted in accordance with the m/z value of the precursor ions selected for MS/MS. Selected precursor ions are excluded from repeated selection for 60 sec after the end of the corresponding fragmentation duty cycle. […] One missed tryptic cleavage site was allowed, precursor ion mass tolerance=0.4 Da fragment ion mass tolerance=0.4 Da, protein modifications were allowed for Met-oxide, Cys-acrylamide and N-terminal acetylation. MudPit scoring was typically applied with ‘require bold red’ activated, and using significance threshold score p<0.05. Unique peptide counts (or ‘spectral counts’) and percent sequence coverages for all identified proteins were exported to Scaffold Proteome Software (version 2_06_01, www.proteomesoftware.com) for further bioinformatic analysis (Table 5a). Using output from Mascot, Scaffold validates, organizes, and interprets mass spectrometry data, allowing more easily to manage large amounts of data, to compare samples, and to search for protein modifications.

Row | Molecule | Number of Assigned Spectra, K562 Prep 1
1 | B1 | 4
2 | B2 | 9
3 | B3 | 0
4 | B4 | 8
5 | B5 | 5
6 | B6 | 5
7 | B7 | 6

Same assay, conditions: protein identified in PU-beads pull-down of K562 cell extract, Prep 2; QSTAR-Elite QTof MS

Row | Molecule | Number of Assigned Spectra, K562 Prep 2
8 | B1 | 5
9 | B2 | 1
10 | B3 | 0
11 | B4 | 3
12 | B5 | 2
13 | B6 | 6
14 | B7 | 3

What follows are molecules tested on Hsp90 complexes in Mia-PaCa-2 cell extract (assay: Nano-LC-MS/MS of PU-beads pull-downs). Settings: protein identified in PU-beads pull-down of Mia-PaCa-2 cell extract; QSTAR-Elite QTof MS.
Assay type: binding, human
Description: as §1

Row | Molecule | Number of Assigned Spectra, Mia-Paca 2
15 | B1 | 0
16 | B2 | 0
17 | B3 | 6
18 | B4 | 0
19 | B5 | 0
20 | B6 | 0
21 | B7 | 0
